# Patent publication US20190048049A1 (CERENIS THERAPEUTICS, published 2019)
# Ends that are not written are not given here.
# B1: M30 tumor antigen peptide coupled to PDP-PE lipid (peptide)
# peptide: CSSVDWENVSPELNSTDQ
# modifications: also: reacted with PDP-PE lipid, residue of attachment not given here
# notes: Lipid-anchored peptide cargo of ApoA-I Cargomers (ApoA-I:TA molar ratios 1:2 and 1:4); also called TA peptide M30
# Molecular target: T1, ApoA-I (human, UniProt P02647 25-267)
# T1 construct: Stands in Cargomers as a monomer or multimer (1-8 molecules); also called apolipoprotein A-I; ApoA1
# Experiment: size exclusion chromatography of ApoA-I:M30 Cargomers, with increased temperature
# T1 sequence (P02647 25-267 limits assumed): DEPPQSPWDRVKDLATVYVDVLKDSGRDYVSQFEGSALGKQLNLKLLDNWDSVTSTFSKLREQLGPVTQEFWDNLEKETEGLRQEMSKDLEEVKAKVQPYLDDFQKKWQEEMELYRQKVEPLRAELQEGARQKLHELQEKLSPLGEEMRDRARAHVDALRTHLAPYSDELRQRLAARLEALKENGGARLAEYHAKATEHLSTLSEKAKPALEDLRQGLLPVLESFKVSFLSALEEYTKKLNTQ
binder,measurement,value
B1,binding result,binds
